# Laboratory results: US20200048328A1 (Bristol-Myers Squibb, published 2020)
# B1: PKE2 Adnectin 2629_E06 (designed binder)
# chain: MGVSDVPRDLEVVAATPTSLLISWDAPAVTVRYYRITYGREVQKYSDLGPLYIYQEFTVPGSKSTATISGLKPGVDYTITVYAVTGSGESPASSKPISINYRTEIDKPSQHHHHHH
# notes: 10Fn3 domain with modified CD loop; the entry includes the His6 tail; also called ADX_2629_E06
# Columns and labels:
# [1] = biological target: T1, mouse serum albumin (mouse, UniProt P07724 25-608); assay: SPR, albumin immobilized, acetate pH 7.4; acetate pH 7.4, MuSA
# T1 construct: also called MSA; MuSA
# [2] = biological target: T2, domain I of HSA (human, UniProt P02768 25-221, limits assumed); assay: SPR on HSA domains
# T2 construct: domain: I; also called HSA domain I
# [3] = biological target: T3, domain III of HSA (human, UniProt P02768 405-609, limits assumed); assay: SPR on HSA domains
# T3 construct: domain: III; also called HuSA domainIII
# [4] = biological target: T4, human serum albumin (human, UniProt P02768 25-609); assay: SPR, albumin immobilized, acetate pH 5.5
# T4 construct: immobilized on chips or coated on plates elsewhere; also called HSA; HuSA
# [5] = biological target: T1, mouse serum albumin; assay: SPR, albumin immobilized, acetate pH 5.5
# [6] = biological target: T5, rhesus serum albumin (rhesus, UniProt Q28522 17-600); assay: SPR, albumin immobilized, acetate pH 5.5
# T5 construct: also called RhSA; Rh-SA
# [7] = biological target: T4, human serum albumin; assay: SPR, albumin immobilized, acetate pH 7.4
# [8] = biological target: T1, mouse serum albumin; assay: SPR, albumin immobilized, acetate pH 7.4
# [9] = biological target: T5, rhesus serum albumin; assay: SPR, albumin immobilized, acetate pH 7.4
# [10] = biological target: T4, human serum albumin; assay: SPR, albumin immobilized, HBSP pH 7.4
# [11] = biological target: T1, mouse serum albumin; assay: SPR, albumin immobilized, HBSP pH 7.4
# [12] = biological target: T5, rhesus serum albumin; assay: SPR, albumin immobilized, HBSP pH 7.4
# [13] = biological target: T4, human serum albumin; assay: direct binding ELISA, albumin coated
# Protocol: (§1) Cross-species albumin binding was determined using the ELISA method described above.
# [14] = biological target: T1, mouse serum albumin; assay: direct binding ELISA, albumin coated
# Protocol: as §1
# [15] = biological target: T5, rhesus serum albumin; assay: direct binding ELISA, albumin coated
# Protocol: as §1
# [16] = biological target: T4, human serum albumin; assay: SPR, albumin immobilized;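 further: biacore SPR with human, rhesus or mouse serum albumin amine-coupled to the chip (about 1200 RU), 3 min association, 6-10 min dissociation, reference-subtracted traces fitted with a 1:1 model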
# Protocol: (§2) To determine the kinetics of binding to human, rhesus, and mouse serum albumin, as well as whether binding was retained at both physiological and endosomal pHs, the respective serum albumins were immobilized on a Biacore CMS chip to a surface density of ˜1200 RU using standard NHS/EDC coupling. […] Kinetic measurements were carried out using a 3 min association and 6-10 min dissociation phase. Kinetic traces of reference-subtracted sensorgrams were fit to a 1:1 binding model using the Biaevaluation software.
# [17] = biological target: T1, mouse serum albumin; assay: SPR, albumin immobilized;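 further: biacore SPR with human, rhesus or mouse serum albumin amine-coupled to the chip (about 1200 RU), 3 min association, 6-10 min dissociation, reference-subtracted traces fitted with a 1:1 model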
# Protocol: as §2
# [18] = biological target: T5, rhesus serum albumin; assay: SPR, albumin immobilized;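 further: biacore SPR with human, rhesus or mouse serum albumin amine-coupled to the chip (about 1200 RU), 3 min association, 6-10 min dissociation, reference-subtracted traces fitted with a 1:1 model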
# Protocol: as §2
# [19] = biological target: T4, human serum albumin; assay: SPR, albumin immobilized, HBSP pH 7.4; remark: listed apart in the source
# [20] = biological target: T1, mouse serum albumin; assay: SPR, albumin immobilized, HBSP pH 7.4; remark: listed apart in the source
# [21] = biological target: T5, rhesus serum albumin; assay: SPR, albumin immobilized, HBSP pH 7.4; remark: listed apart in the source
# [22] = biological target: T4, human serum albumin; assay: direct binding ELISA on coated HSA, mono-Adnectin (column HSA EC50 (nM))
# [23] = biological target: T4, human serum albumin; assay: SPR, albumin immobilized, acetate pH 7.4; remark: listed apart in the source
# [24] = biological target: T1, mouse serum albumin; assay: SPR, albumin immobilized, acetate pH 7.4; remark: listed apart in the source
# [25] = biological target: T5, rhesus serum albumin; assay: SPR, albumin immobilized, acetate pH 7.4; remark: listed apart in the source
# [26] = biological target: T6, human PCSK9 (human, UniProt Q8NBP7 31-692); assay: SPR, dual injection on immobilized albumin
# T6 construct: also called hPCSK9; huPCSK9
# [27] = biological target: T7, rat serum albumin (rat, UniProt P02770 25-608); assay: SPR, albumin immobilized, Adnectin 250 nM
# T7 construct: also called Rat SA; RSA
# [28] = biological target: T4, human serum albumin; assay: SPR, albumin immobilized, Adnectin 250 nM
# [29] = biological target: T1, mouse serum albumin; assay: SPR, albumin immobilized, Adnectin 250 nM
# [30] = biological target: T5, rhesus serum albumin; assay: SPR, albumin immobilized, Adnectin 250 nM
# T5 sequence (Q28522 17-600 limits assumed): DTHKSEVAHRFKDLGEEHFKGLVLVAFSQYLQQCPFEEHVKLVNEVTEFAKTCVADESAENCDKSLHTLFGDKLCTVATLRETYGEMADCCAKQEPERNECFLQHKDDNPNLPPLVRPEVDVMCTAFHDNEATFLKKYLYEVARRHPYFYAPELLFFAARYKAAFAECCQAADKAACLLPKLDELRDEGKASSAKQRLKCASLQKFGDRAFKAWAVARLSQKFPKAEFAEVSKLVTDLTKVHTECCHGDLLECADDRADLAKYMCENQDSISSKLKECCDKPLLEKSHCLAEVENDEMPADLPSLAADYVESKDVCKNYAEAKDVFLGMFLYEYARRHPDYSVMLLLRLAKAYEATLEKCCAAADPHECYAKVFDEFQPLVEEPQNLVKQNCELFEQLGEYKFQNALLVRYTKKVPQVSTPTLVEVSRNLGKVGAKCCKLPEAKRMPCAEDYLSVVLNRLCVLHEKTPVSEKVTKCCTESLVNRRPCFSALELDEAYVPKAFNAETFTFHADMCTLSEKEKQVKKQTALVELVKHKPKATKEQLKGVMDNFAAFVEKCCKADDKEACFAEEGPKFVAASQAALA
# T1 sequence (P07724 25-608 limits assumed): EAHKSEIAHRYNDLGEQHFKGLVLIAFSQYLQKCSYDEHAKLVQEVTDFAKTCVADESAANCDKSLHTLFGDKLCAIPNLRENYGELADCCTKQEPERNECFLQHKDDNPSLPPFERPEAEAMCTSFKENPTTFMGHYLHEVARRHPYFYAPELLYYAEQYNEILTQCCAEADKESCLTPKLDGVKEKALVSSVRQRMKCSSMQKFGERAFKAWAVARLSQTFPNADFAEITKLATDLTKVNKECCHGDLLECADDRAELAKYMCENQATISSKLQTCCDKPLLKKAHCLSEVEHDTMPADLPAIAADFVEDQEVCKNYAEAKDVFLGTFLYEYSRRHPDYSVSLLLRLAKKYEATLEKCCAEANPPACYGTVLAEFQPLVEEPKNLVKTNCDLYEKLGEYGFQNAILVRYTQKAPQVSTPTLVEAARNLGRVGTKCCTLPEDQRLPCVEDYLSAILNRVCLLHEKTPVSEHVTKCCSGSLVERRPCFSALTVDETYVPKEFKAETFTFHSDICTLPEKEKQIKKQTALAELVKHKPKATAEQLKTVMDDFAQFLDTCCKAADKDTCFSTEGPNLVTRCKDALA
# T7 sequence (P02770 25-608 limits assumed): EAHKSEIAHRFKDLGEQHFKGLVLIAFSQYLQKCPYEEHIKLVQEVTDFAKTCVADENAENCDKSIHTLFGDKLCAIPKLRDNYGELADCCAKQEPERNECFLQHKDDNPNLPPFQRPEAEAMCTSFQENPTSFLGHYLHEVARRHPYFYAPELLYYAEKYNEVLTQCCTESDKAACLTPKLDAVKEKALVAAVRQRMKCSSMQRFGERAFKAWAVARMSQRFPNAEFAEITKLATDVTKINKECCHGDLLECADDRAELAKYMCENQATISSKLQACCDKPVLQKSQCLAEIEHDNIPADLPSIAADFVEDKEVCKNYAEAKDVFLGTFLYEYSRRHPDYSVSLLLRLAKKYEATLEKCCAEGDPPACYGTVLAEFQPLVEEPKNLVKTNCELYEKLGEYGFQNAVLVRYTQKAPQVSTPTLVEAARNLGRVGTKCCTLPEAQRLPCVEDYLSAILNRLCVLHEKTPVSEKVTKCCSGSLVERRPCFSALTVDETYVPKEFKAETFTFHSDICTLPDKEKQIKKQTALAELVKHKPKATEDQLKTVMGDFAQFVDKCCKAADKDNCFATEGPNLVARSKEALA
binder,measurement,setting,value
B1,kon,[1],~76800 M⁻¹ s⁻¹
same,binding result,[2],no binding
same,binding result,[3],no binding
same,Kd,[4],4.64 nM
same,koff,[4],0.000326 s⁻¹
same,kon,[4],70400 M⁻¹ s⁻¹
same,Kd,[5],14.9 nM
same,koff,[5],0.00125 s⁻¹
same,kon,[5],84000 M⁻¹ s⁻¹
same,Kd,[6],12 nM
same,koff,[6],0.000584 s⁻¹
same,kon,[6],48500 M⁻¹ s⁻¹
same,Kd,[7],9.6 nM
same,koff,[7],0.000243 s⁻¹
same,kon,[7],25400 M⁻¹ s⁻¹
same,Kd,[8],11.2 nM
same,koff,[8],0.000503 s⁻¹
same,Kd,[9],10.4 nM
same,koff,[9],0.000297 s⁻¹
same,kon,[9],28600 M⁻¹ s⁻¹
same,Kd,[10],10.7 nM
same,koff,[10],0.000192 s⁻¹
same,kon,[10],17900 M⁻¹ s⁻¹
same,Kd,[11],3.3 nM
same,koff,[11],0.000262 s⁻¹
same,kon,[11],79600 M⁻¹ s⁻¹
same,Kd,[12],11.4 nM
same,koff,[12],0.000267 s⁻¹
same,kon,[12],23500 M⁻¹ s⁻¹
same,EC50,[13],14.5 nM
same,EC50,[14],2.8 nM
same,EC50,[15],10.5 nM
same,Kd,[16],12.3 nM
same,koff,[16],0.000213 s⁻¹
same,kon,[16],17400 M⁻¹ s⁻¹
same,Kd,[17],3.6 nM
same,koff,[17],0.000242 s⁻¹
same,kon,[17],68400 M⁻¹ s⁻¹
same,Kd,[18],14.5 nM
same,koff,[18],0.000283 s⁻¹
same,kon,[18],19500 M⁻¹ s⁻¹
same,Kd,[19],10.6 nM
same,koff,[19],0.000219 s⁻¹
same,kon,[19],20700 M⁻¹ s⁻¹
same,Kd,[20],3.43 nM
same,koff,[20],0.000272 s⁻¹
same,kon,[20],79100 M⁻¹ s⁻¹
same,Kd,[21],12.7 nM
same,koff,[21],0.000276 s⁻¹
same,kon,[21],21800 M⁻¹ s⁻¹
same,EC50,[22],20 nM
same,Kd,[23],9.74 nM
same,koff,[23],0.000272 s⁻¹
same,kon,[23],28000 M⁻¹ s⁻¹
same,Kd,[24],3.48 nM
same,koff,[24],0.000268 s⁻¹
same,kon,[24],76800 M⁻¹ s⁻¹
same,Kd,[25],11.8 nM
same,koff,[25],0.000328 s⁻¹
same,kon,[25],27900 M⁻¹ s⁻¹
same,binding result,[26],no binding
same,koff,[27],0.000767 s⁻¹
same,koff,[28],0.000169 s⁻¹
same,koff,[29],0.000401 s⁻¹
same,koff,[30],0.000219 s⁻¹
